This assay has as its target GST-LEDGF PWWP (1–100) (UniProt O75475). The assay is described as follows: pull-down.

Several values for one entry are separate records, joined by “and”; a condition that tells them apart may be missing. Equal entries are not always repeated.

A word on the Kd: it is the concentration at which binding is half-saturated. High values mean weaker binding, low ones tighter binding.

Chain of GST-LEDGF PWWP (1–100) (O75475 1-100): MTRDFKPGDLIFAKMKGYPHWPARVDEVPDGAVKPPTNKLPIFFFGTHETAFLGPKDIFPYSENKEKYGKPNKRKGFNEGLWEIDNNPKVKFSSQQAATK

Turning to “native mononucleosomes (MNs) from SupT1 cells (from UniProt P0C0S8;P62807;P68431;P62805) (complex)”, the Kd is 232 nM and 102 nM.

The values are drawn from PMC3616739.
